According to patent US20080160023:

Tests used:
[1] = target: T1, recombinant mouse Scp2 with C-terminal myc-6xHis tag, P32020
T1 chain: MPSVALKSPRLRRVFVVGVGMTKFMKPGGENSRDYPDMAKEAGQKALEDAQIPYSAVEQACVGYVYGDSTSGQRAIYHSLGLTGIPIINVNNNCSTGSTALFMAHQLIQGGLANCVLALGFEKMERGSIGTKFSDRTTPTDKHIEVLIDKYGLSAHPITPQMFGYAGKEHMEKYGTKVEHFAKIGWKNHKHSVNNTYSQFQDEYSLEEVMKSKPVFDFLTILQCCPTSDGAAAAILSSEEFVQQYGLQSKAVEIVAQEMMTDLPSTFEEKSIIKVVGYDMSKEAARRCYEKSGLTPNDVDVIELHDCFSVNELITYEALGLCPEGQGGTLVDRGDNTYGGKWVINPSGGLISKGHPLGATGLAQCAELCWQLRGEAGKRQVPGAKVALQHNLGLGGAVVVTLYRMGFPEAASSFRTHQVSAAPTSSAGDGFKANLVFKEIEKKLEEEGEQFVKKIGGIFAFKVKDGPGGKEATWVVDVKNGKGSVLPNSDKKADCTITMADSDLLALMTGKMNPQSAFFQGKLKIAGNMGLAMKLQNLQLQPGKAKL

[2] = target: T2, recombinant rat Acaa1 with 6xHis N-terminal tag, P07871
T2 chain: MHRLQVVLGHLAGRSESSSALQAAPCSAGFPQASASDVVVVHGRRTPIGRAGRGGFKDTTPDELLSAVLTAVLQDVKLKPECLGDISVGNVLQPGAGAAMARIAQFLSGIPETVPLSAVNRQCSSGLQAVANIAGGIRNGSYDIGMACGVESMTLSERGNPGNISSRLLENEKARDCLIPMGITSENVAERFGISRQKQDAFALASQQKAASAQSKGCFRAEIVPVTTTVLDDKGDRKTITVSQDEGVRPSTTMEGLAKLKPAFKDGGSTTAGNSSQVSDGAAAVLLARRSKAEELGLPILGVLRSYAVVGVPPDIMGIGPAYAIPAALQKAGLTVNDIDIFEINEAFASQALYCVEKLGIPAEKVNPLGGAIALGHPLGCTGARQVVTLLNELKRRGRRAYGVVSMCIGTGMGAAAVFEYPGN

[3] = target: T3, recombinant rat Acox1 with C-terminal myc-6xHis tag, P07872
T3 chain: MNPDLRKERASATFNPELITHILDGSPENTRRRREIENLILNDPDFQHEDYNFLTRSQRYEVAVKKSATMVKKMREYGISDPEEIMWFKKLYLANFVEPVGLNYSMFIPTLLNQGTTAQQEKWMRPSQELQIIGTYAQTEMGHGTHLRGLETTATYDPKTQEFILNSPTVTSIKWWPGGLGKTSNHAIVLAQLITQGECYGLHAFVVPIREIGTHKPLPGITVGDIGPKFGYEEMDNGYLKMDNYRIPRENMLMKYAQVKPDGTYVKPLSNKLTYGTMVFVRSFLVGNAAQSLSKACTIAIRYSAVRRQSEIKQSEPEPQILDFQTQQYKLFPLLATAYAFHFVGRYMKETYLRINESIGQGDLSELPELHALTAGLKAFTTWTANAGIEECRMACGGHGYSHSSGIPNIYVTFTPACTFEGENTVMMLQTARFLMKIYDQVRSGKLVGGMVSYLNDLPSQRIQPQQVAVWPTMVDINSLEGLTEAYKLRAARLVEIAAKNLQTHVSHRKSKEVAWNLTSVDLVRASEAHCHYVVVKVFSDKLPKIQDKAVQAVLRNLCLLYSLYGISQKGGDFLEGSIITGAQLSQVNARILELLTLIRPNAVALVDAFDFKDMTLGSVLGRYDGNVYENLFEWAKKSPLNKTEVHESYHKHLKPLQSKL

B1: recombinant Tysnd1-FLAG purified from COS-7 cells (protein)
chain 1: MGRQWGPSMRVAEQAGCVVSASRAGQPDAGSWSCSGVILSRNPGLVLCHGGIFTPFLRTGSAALTQTGTAFLPGDSCSDDLRLHVQWGPTAASPAGRADQELPGLCTPQCASLGLEPGAPSRARARPLQPPRPAQLLLLLSCPAFRSHFARLFGADAVDQWHFVSSAPDDAVSEEEEEDQLRALGWFALLRVQRGAAAEERRGPVVTVAPLGAVVKGAPLLACGSPFGAFCPDIFLNTLSRGVLSNAAGPLLLTDARCLPGTEGGGVFAARPAGALVALVAAPLCWKAREWVGLTLLCAAAPLLQVARWALARLHPGSASLSVLLPPPDVSTPRGLPLRDLGPPWAAAAVLVECGTVWGSGVVVAPRLVVTCRHVAPREAARVLVHSATPKNVAIWGQVVFATQETSPYDIAVVSLEEELNGVPTPVPAGHFHEGEPVSVVGFGVFGQACGPSVTSGILSAVVRVDGSPVMLQTTCAVHGGSSGGPLFSSGSGDLLGIVASNTRDNNTGATYPHLNFSIPITVLQPALKQYSQTGDLGGLRELDHTTEPVRVVWRLQRPLSE
chain 2: VPRSKL
[1]
  in vitro cleavage (Western blot with anti-cMyc antibody): Scp2 was processed to generate C-terminal fragment of 16 kDa
[2]
  in vitro cleavage (Amido Black staining of the membrane): Incubation of Tysnd1 with Acaa1 resulted in the removal of 3 kDa PTS2-containing N-terminal propeptide to produce mature Acaa1
[3]
  in vitro cleavage (Western blot with anti-cMyc antibody): Acox1 was cleaved to produce C-terminal fragment of 28 kDa
